{"source": "paper doi:10.1101/2023.07.03.547485", "about": "(bioRxiv, 2023)", "target": "T1, 6His-msfGFP-TEV-Mis18FL (S. pombe, UniProt Q9P802 1-194)", "T1 sequence (looked up)": "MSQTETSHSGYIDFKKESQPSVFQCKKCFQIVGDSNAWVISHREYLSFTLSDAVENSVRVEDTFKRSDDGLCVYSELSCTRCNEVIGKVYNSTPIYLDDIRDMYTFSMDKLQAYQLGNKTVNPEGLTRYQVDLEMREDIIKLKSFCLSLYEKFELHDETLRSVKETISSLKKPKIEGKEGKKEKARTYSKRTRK", "experiment": "pull-down", "data": [{"binder": "6His-MBP-Sad1(2-167) (domain or fragment, S. pombe, UniProt Q09825 2-167, looked up) FTNTPVGGKRERQNGAHPAWSTLGANSAQIHQNTADLASKMHKLRYTKIRSPPTRVSIESITPKQRFPAPNFEQAYHSNIRYEQEESDNEEFENVVKNGHEASTNVFYESDGDDEEFVNEEYENSIDEESDDEGYSLNEDTTATNASFRYPMNQRSTRKSQFYSSK", "values": [{"measurement": "binding result", "result": "binds"}]}]}
